Data: US20150158910A1 (Bristol-Myers Squibb, published 2015)

T1: human PAR4 (protease activated receptor 4) (human, UniProt Q96RI0 48-385)
T1 sequence (looked up): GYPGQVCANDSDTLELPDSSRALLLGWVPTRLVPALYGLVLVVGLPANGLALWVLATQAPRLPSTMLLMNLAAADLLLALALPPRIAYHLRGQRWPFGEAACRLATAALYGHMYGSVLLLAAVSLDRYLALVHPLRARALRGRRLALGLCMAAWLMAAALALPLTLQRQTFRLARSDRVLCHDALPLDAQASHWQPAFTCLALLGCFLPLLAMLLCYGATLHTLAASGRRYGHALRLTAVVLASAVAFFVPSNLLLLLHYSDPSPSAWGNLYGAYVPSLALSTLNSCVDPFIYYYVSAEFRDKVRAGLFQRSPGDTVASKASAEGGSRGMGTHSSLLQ

T2: PAR1 (protease activated receptor 1), endogenous in HEK293 cells (UniProt P25116 42-425, limits assumed)
T2 sequence (looked up): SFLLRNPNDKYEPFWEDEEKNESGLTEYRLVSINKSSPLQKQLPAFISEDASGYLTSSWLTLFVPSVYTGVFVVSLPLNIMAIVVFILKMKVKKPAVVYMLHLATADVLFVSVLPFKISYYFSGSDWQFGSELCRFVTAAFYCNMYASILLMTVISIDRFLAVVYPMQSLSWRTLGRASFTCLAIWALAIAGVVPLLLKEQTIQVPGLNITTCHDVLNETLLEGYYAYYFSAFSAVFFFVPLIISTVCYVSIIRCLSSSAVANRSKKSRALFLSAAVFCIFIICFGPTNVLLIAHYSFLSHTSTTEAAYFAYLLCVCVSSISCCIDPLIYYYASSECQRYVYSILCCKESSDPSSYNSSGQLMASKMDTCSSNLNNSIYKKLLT


Tests used:
[1] = target: T1, human PAR4 (protease activated receptor …); assay: cell-based or functional assay
[2] = target: T2, PAR1 (protease activated receptor 1), …; assay: cell-based or functional assay

Row | EC50 (µM) FLIPR Assay [1] [µM] | EC50, calcium mobilization (FLIPR/FDSS) in HEK293 PAR4 cells, PAR1 counter screen [2] [µM] | Binder
1 | 4.8 |  | AYPGWLVKNG (free N-terminus; C-terminal amide) [PAR4 agonist peptide SEQ ID NO: 2]
2 |  | 0.6 | SFFLRR [SFFLRR (SEQ ID NO: 35)]

Continued, binder first:

Row | Binder | EC50 (µM) FLIPR Assay [1] [µM] | EC50, calcium mobilization (FLIPR/FDSS) in HEK293 PAR4 cells, PAR1 counter screen [2] [µM]
3 | AYPG [Peptide SEQ ID NO: 10] | 600 | 
4 | AYPGQVCAND [Peptide SEQ ID NO: 11] | 159 | 
